In article PMC11597096, “Unite and Conquer: Association of Two G-Quadruplex Aptamers Provides Antiproliferative and Antimigration Activity for Cells from High-Grade Glioma Patients”:

Biological target: PARP1 (Homo sapiens, UniProt P09874 1-1014)
Assay: BLI; no competitor; kon 6.6 ± 0.34 (10^5 M-1 s-1), koff 1.28 ± 0.04 (printed as 10^2; 10^-2 s-1 implied); BLI: 1x PBS pH 7.4, 25 °C, SAX biosensors, biotinylated oligo loaded at 2 uM, PARP1 2.5-162 nM. Pull-down: 25 mM Tris-HCl pH 7.4, 150 mM NaCl, 1 mM EDTA, 1% NP-40, 5% glycerol, 0.1 mM DTT, room temperature
Details: protein: recombinant; label: 5'-biotin; bi-modular G4 with parallel chain stacking

PARP1, sequence (P09874 whole entry): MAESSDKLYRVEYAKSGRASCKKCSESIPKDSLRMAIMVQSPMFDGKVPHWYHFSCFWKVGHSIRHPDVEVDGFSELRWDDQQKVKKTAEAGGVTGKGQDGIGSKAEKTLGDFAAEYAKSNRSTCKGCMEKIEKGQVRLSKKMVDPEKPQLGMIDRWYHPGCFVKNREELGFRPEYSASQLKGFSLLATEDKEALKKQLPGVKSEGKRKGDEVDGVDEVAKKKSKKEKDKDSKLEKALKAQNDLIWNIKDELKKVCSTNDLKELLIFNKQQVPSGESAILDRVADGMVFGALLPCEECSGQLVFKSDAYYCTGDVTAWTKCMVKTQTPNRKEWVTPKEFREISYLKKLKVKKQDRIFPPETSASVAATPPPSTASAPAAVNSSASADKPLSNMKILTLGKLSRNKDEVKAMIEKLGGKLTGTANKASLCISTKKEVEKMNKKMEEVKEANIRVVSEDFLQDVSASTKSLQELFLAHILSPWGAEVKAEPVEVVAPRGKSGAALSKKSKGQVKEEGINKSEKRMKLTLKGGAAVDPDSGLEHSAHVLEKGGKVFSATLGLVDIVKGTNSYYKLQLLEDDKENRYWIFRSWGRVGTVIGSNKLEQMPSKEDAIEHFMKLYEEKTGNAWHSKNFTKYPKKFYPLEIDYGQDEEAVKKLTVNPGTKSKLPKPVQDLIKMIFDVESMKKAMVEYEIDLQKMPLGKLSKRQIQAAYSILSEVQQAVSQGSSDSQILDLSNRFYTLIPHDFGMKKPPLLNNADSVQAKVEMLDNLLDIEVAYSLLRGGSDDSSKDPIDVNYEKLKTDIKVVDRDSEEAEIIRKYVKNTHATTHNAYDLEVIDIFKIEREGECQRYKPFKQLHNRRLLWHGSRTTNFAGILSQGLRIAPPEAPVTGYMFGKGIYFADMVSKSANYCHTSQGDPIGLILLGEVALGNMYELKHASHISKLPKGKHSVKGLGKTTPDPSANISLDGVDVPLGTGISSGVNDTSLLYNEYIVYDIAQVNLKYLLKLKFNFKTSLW

B1: bi-(AID-1-T) (structured_DNA)
DNA: GGGTGGGTGGGTGGGTTTGGGTGGGTGGGTGGG
B1 was tested, and the Kd was 19.4 ± 0.7 nM.
